“And” between values parts separate entries of the source, which are not always exact repeats. Equal values may be shown once.
Biological target: Recombinant M. tuberculosis MDP1 (Mycobacterial DNA-binding protein 1) produced in Mycolicibacterium (Mycobacterium tuberculosis) (UniProt P9WMK7)
Assay: cross-linking; glutaraldehyde 0.2%, room temperature, 30 min; 4 µM or 8 µM protein in 150-1500 mM NaCl; SDS-PAGE on a 4-15% gradient gel

Recombinant M. tuberculosis MDP1 (Mycobacterial DNA-binding protein 1) produced in Mycolicibacterium (from UniProt P9WMK7 3-216) (natural protein)
stoichiometry N: 2 and 3

Reference: article PMC11033290
